Ends that are not written are not given here. * marks the point of attachment. DOTA = O=C(O)CN1CCN(CC(=O)O)CCN(CC(=O)*)CCN(CC(=O)O)CC1; PEG (n : 3) = short polyethylene glycol linker, n = 3
Biological target: Transforming growth factor β (human (endogenous in PANC-1))
Sequence (P01137 279-390): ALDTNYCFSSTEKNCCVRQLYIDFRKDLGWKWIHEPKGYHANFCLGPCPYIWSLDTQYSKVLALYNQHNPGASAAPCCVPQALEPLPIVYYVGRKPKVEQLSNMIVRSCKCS

{DOTA-PEG (n : 3)}-TSLDASIWAMMQNA (also: [68Ga] chelated by the DOTA) [[^68Ga]Ga-DOTA-P144]
tumor uptake (%ID/g-mean) of [^68Ga]Ga-P144 by microPET at 1 h in PANC-1 tumor-bearing mice, unblocked group (n = 4): 5.36 %ID/g-mean
